This note sets out measurements from US20230183336A1 (MODMAB THERAPEUTICS, published 2023).

For this test, the target named is T1, recombinant mouse LRP6-His chimera (mouse, UniProt O88572 20-1370).
T1 construct: extracellular domain; also called ECD of mouse LRP6; not shown: His tag
T1 sequence (looked up): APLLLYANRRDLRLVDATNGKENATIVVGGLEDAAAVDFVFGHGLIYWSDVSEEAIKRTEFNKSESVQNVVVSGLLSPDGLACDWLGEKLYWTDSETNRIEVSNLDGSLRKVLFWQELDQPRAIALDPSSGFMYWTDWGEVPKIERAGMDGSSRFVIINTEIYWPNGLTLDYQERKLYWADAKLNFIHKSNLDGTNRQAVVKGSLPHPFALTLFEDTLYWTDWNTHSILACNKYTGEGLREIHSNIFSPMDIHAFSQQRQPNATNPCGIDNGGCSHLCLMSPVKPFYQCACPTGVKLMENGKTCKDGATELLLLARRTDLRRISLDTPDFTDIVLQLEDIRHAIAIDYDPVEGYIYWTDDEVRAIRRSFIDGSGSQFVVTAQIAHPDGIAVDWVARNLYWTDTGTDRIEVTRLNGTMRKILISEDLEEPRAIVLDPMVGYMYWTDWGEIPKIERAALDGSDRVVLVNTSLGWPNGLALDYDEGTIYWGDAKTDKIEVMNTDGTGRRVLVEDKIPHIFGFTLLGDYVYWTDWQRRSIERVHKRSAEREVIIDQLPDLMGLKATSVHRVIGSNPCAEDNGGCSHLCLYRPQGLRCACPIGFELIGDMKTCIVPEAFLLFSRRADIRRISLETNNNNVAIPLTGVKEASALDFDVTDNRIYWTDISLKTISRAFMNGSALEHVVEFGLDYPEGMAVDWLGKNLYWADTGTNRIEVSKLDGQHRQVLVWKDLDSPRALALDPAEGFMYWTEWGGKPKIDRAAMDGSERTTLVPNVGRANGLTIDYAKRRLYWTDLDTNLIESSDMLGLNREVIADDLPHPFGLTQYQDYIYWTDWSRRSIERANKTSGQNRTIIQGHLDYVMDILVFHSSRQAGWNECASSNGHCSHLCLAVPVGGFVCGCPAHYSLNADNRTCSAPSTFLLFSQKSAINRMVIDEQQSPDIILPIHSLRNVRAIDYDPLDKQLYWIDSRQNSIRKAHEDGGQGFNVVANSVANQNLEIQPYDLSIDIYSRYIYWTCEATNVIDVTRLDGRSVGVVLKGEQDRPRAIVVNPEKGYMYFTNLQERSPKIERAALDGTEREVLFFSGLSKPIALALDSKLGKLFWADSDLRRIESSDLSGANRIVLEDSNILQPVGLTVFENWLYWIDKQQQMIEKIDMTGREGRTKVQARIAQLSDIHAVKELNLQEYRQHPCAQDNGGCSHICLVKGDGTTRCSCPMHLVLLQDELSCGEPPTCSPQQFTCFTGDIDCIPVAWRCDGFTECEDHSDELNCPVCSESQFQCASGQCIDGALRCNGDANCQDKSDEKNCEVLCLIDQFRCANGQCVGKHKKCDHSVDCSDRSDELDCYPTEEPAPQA
As to the kind of experiment: single-point ELISA, coated antigen, purified Fab or IgG1, anti-kappa-HRP. For orientation: An ELISA detects its analyte on a solid surface through an enzyme-linked reagent.

B1: LRP5-H5 (antibody, V domains shown)
VH: EVQLVESGGGLVQPGGSLRLSCAASGFNLSYSSIHWVRQAPGKGLEWVASISSSYGSTSYADSVKGRFTISADTSKNTAYLQMNSLRAEDTAVYYCARGYWAIDYWGQGTLVTVSS
VL: DIQMTQSPSSLSASVGDRVTITCRASQSVSSAVAWYQQKPGKAPKLLIYSASSLYSGVPSRFSGSRSGTDFTLTISSLQPEDFATYYCQQPVGHYGYPITFGQGTKVEIKR
notes: Fab-phage in the screen
With B1, the binding result was “binds”.
